# From patent US20220298225A1, “METHODS AND COMPOSITIONS FOR TREATING CANCER WITH COLLAGEN BINDING DRUG CARRIERS” (The University of Chicago, priority 2019, published 2022)
# B1: CBD-SA: recombinant mouse serum albumin with VWF A3 collagen binding domain on the N-terminus via (GGGS)2 linker (SEQ ID NO:3) (protein)
# chain: CSQPLDVILLLDGSSSFPASYFDEMKSFAKAFISKANIGPRLTQVSVLQYGSITTIDVPWNVVPEKAHLLSLVDVMQREGGPSQIGDALGFAVRYLTSEMHGARPGASKAVVILVTDVSVDSVDAAADAARSNRVTVFPIGIGDRYDAAQLRILAGPAGDSNVVKLQRIEDLPTMVTLGNSFLHKLCSGFVRIGGGSGGGSEAHKSEIAHRYNDLGEQHFKGLVLIAFSQYLQKCSYDEHAKLVQEVTDFAKTCVADESAANCDKSLHTLFGDKLCAIPNLRENYGELADCCTKQEPERNECFLQHKDDNPSLPPFERPEAEAMCTSFKENPTTFMGHYLHEVARRHPYFYAPELLYYAEQYNEILTQCCAEADKESCLTPKLDGVKEKALVSSVRQRMKCSSMQKFGERAFKAWAVARLSQTFPNADFAEITKLATDLTKVNKECCHGDLLECADDRAELAKYMCENQATISSKLQTCCDKPLLKKAHCLSEVEHDTMPADLPAIAADFVEDQEVCKNYAEAKDVFLGTFLYEYSRRHPDYSVSLLLRLAKKYEATLEKCCAEANPPACYGTVLAEFQPLVEEPKNLVKTNCDLYEKLGEYGFQNAILVRYTQKAPQVSTPTLVEAARNLGRVGTKCCTLPEDQRLPCVEDYLSAILNRVCLLHEKTPVSEHVTKCCSGSLVERRPCFSALTVDETYVPKEFKAETFTFHSDICTLPEKEKQIKKQTALAELVKHKPKATAEQLKTVMDDFAQFLDTCCKAADKDTCFSTEGPNLVTRCKDALAHHHHHH
# Tests used:
# collagen type III = target: T1, collagen type III (Homo sapiens, UniProt P02461); assay: Binding affinity of CBD-SA to collagen by ELISA
# T1 sequence (P02461 154-1221 limits assumed): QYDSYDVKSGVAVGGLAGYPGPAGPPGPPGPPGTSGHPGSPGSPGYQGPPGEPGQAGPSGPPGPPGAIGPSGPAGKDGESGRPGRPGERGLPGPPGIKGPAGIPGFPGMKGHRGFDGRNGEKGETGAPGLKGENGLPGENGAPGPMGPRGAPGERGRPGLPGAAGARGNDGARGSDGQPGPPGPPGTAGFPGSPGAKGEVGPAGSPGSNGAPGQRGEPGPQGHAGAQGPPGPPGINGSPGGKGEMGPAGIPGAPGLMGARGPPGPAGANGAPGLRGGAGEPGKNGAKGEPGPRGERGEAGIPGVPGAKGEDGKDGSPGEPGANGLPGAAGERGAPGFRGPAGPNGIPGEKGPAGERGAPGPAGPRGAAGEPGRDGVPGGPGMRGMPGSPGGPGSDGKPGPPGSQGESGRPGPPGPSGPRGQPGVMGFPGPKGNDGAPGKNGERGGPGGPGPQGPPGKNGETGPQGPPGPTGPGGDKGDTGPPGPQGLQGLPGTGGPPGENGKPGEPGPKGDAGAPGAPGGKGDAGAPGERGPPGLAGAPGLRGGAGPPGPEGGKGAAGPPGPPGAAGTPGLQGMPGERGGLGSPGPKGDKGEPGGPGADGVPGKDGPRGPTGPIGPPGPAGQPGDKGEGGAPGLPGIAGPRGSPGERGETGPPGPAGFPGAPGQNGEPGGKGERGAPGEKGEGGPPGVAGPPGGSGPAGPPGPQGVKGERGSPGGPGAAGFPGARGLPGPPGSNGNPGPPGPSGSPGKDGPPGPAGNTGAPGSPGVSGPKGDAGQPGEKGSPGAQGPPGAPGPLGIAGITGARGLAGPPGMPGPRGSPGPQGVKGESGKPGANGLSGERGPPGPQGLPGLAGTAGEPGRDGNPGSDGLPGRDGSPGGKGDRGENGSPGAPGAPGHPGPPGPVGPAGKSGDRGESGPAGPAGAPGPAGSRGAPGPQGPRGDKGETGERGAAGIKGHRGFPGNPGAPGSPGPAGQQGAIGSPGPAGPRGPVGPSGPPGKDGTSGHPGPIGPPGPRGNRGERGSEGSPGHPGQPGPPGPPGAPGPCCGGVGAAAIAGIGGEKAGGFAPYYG
# Description: (§1) The binding affinity of CBD-SA to collagens were tested as described previously (9). 96 well ELISA plates (Greiner Bio-One) were coated with collagen I or collagen III (10 μg/mL each in PBS) for overnight at 37° C., followed by blocking with 2% BSA in PBS with 0.05% Tween 20 (PBS-T) for 1 h at room temperature. Then, wells were washed with PBS-T and further incubated with CBD-SA at increasing concentrations for 2 h at room temperature. After three washes with PBS-T, wells were incubated for 1 h at room temperature with biotin- conjugated Abs against mouse SA. After washes, bound CBD-SA were detected with tetramethylbenzidine substrate by measurement of the absorbance at 450 nm with subtraction of the absorbance at 570 nm. The apparent Kd values were obtained by nonlinear regression analysis in Prism software (version 7, GraphPad) assuming one-site-specific binding.
# collagen type I = collagen type I (Homo sapiens, UniProt P02452+P08123); assay: Binding affinity of CBD-SA to collagen by ELISA
# Description: as §1
# MMTV-PyMT tumor = assay: Histological analysis of injected CBD-SA within tumor; format: in vivo, mouse; conditions: 1 h after i.v. injection, CD31 staining
# Description: Mouse SA (Sigma-Aldrich) and CBD-SA were conjugated with NHS-DyLight 488 according to manufacturer's instructions. Unreacted dye was removed by Zeba spin desalting column, then fluorescent protein solution was stored at 4° C. until use. 100 μg of fluorescent labeled SA or CBD-SA labeled with equimolar of dye was intravenously injected to MMTV-PyMT tumor-bearing mice. 1 h after injection, tumors were harvested and frozen in dry ice with OCT compound. 10 μm of tissue slices were obtained by cryo-sectioning. The tissues were fixed with 2% paraformaldehyde in PBS for 15 min at room temperature. After wash with PBS-T, the tissues were blocked with 2% BSA in PBS-T for 1 h at room temperature. The tissues were stained with biotin labeled anti-mouse CD31 antibody (1:100, Biolegend) and Alexa Fluor 647 streptavidin (1:1000, Biolegend). The tissues were washed three times, then covered with ProLong gold antifade mountant with DAPI (Thermo fisher scientific). IX83 microscope (Olympus) was used for imaging with ×60 magnification. Images were processed using ImageJ software (NIH).
# Chain of collagen type I (P02452 162-1218 limits assumed): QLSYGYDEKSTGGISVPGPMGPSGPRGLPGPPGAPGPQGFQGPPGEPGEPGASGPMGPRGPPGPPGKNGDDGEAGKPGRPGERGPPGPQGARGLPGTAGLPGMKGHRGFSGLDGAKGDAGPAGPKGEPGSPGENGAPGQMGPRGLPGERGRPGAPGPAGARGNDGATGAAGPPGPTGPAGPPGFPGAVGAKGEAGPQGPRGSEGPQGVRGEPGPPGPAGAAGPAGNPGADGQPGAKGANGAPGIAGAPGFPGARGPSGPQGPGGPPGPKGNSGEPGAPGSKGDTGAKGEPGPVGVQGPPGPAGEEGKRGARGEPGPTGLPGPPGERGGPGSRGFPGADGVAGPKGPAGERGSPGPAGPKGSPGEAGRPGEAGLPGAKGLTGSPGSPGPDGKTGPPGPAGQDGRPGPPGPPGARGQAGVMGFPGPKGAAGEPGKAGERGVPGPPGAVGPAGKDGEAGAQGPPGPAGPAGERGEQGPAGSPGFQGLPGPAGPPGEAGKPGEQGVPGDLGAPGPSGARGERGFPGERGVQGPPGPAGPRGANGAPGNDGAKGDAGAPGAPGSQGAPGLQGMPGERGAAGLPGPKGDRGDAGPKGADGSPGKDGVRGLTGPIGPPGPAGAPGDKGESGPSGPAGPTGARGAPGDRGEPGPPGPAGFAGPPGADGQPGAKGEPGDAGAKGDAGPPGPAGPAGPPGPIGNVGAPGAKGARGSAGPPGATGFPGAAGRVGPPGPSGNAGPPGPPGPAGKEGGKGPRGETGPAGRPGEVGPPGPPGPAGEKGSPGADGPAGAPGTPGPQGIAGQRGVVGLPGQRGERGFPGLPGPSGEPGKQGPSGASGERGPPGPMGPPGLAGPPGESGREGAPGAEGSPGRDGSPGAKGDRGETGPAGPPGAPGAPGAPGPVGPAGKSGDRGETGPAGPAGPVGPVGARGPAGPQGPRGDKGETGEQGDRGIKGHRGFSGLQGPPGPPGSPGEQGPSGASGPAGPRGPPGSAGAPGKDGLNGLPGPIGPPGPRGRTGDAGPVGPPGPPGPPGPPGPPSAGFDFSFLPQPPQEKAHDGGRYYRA
# Chain of collagen type I (P08123 80-1119 limits assumed): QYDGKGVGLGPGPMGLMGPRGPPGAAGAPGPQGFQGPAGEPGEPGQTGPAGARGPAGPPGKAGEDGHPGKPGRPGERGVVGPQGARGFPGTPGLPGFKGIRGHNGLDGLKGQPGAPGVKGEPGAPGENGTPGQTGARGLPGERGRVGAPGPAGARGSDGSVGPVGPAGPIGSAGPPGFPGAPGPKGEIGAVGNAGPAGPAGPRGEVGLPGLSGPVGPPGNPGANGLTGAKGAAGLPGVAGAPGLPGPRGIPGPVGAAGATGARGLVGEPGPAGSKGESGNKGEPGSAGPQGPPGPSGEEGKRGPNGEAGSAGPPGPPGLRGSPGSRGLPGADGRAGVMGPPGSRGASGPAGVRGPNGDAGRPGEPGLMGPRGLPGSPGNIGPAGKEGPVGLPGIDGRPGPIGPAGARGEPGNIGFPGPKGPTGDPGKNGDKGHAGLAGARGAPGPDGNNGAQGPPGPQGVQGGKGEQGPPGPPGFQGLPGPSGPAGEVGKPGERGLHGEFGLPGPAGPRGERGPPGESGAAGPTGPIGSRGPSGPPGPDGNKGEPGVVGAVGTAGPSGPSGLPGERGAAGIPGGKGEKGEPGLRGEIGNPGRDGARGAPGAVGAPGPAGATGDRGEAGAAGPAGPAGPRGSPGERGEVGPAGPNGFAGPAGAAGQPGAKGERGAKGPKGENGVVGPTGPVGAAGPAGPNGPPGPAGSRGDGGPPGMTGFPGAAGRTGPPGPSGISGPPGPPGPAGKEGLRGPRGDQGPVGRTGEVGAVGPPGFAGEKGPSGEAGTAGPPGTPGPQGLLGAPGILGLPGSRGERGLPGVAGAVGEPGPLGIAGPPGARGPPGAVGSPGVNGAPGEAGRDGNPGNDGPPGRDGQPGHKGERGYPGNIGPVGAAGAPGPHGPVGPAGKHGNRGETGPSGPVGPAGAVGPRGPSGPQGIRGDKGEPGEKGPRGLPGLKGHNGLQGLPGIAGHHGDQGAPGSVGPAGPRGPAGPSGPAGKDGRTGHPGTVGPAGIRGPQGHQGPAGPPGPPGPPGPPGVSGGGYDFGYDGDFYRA
molecule,measurement,setting,value
B1,dissociation constant (Kd) to collagen type III,collagen type III,nM range
same,dissociation constant (Kd) to collagen type I,collagen type I,nM range
same,localization of fluorescently-labeled protein within tumor tissue,MMTV-PyMT tumor,co-localized with CD31 staining within tumor tissue
